Data published in patent US12383631.

Key:
Test in all cases: cell-based or functional assay
[1] = target: IL-18 polypeptide C163 (human) (UniProt Q14116)
[2] = target: IL-18 polypeptide of SEQ ID NO: 47 (C38S, C68S, C76S, C127S) (human) (UniProt Q14116)
[3] = target: IL-18 polypeptide C153 (human) (UniProt Q14116)
[4] = target: IL-18 polypeptide C159 (human) (UniProt Q14116)
[5] = target: IL-18 polypeptide of SEQ ID NO: 48 (C38S, C68S, C76S, C127S, K70C) (human) (UniProt Q14116)
[6] = target: IL-18 polypeptide C168 (human) (UniProt Q14116)
[7] = target: IL-18 polypeptide of SEQ ID NO: 9 (E6K, C38A, K53A, C68A, D98C) (human) (UniProt Q14116)
[8] = target: IL-18 polypeptide C146 (SEQ ID NO: 68) (human) (UniProt Q14116)
[9] = target: IL-18 polypeptide C167 (human) (UniProt Q14116)
[10] = target: IL-18 polypeptide of SEQ ID NO: 31 (C38A, C76A, C127A) (human) (UniProt Q14116)
[11] = target: IL-18 polypeptide of SEQ ID NO: 57 (E6K, C38S, K53A) (human) (UniProt Q14116)
[12] = target: IL-18 polypeptide C155 (human) (UniProt Q14116)
[13] = target: IL-18 polypeptide of SEQ ID NO: 38 (E06K) (human) (UniProt Q14116)
[14] = target: IL-18 polypeptide C157 (human) (UniProt Q14116)
[15] = target: IL-18 polypeptide of SEQ ID NO: 40 (E06K, S55A) (human) (UniProt Q14116)
[16] = target: IL-18 polypeptide of SEQ ID NO: 54 (E06K, K53A, C38S, C68S, C76S, C127S, K70C) (human) (UniProt Q14116)
[17] = target: Composition A (LZM-009 conjugated to IL-18 polypeptide of SEQ ID NO: 30) (human) (UniProt Q14116)
[18] = target: native IL-18 wild-type (SEQ ID NO: 1) (human) (UniProt Q14116)
[19] = target: IL-18 polypeptide C144 (human) (UniProt Q14116)
[20] = target: IL-18 polypeptide C147 (human) (UniProt Q14116)
[21] = target: IL-18 polypeptide C143 (human) (UniProt Q14116)
[22] = target: Composition D (LZM-009 conjugated to IL-18 polypeptide of SEQ ID NO: 31) (human) (UniProt Q14116)
[23] = target: IL-18 polypeptide of SEQ ID NO: 55 (K53A, T63A, C38S, C68S, C76S, C127S, K70C) (human) (UniProt Q14116)
[24] = target: IL-18 polypeptide of SEQ ID NO: 6 (E6K, V11I, C38A, K53A, T63A, C68A, C76A, D98C, C127A) (human) (UniProt Q14116)
[25] = target: Composition C (Trastuzumab/Herceptin conjugated to IL-18 polypeptide of SEQ ID NO: 30) (human)
[26] = target: IL-18 polypeptide C164 (human) (UniProt Q14116)

- IC50 of IL-18BP on IFNγ secretion, NK92 cells [1]: 0.823 nM
- IC50 of IL-18BP on IFNγ secretion, NK92 cells [2]: 0.444 nM
- IC50 of IL-18BP on IFNγ secretion, NK92 cells [3]: 2.22 nM
- IC50 of IL-18BP on IFNγ secretion, NK92 cells [4]: 1.81 nM
- IC50 of IL-18BP on IFNγ secretion, NK92 cells [5]: 0.114 nM
- IC50 of IL-18BP on IFNγ secretion, NK92 cells [6]: 0.176 nM
- IC50 of IL-18BP on IFNγ secretion, NK92 cells [7]: 961 nM
- IC50 of IL-18BP on IFNγ secretion, NK92 cells [8]: 733 nM
- IC50 of IL-18BP on IFNγ secretion, NK92 cells [9]: 0.809 nM
- IC50 of IL-18BPa on IFNγ secretion by NK92 cells [10]: 0.282 nM
- IC50 of IL-18BP on IFNγ secretion, NK92 cells [11]: 146 nM
- IC50 of IL-18BP on IFNγ secretion, NK92 cells [12]: 3.23 nM
- IC50 of IL-18BP on IFNγ secretion, NK92 cells [13]: 7.79 nM
- IC50 of IL-18BP on IFNγ secretion, NK92 cells [14]: 6.08 nM
- IC50 of IL-18BP on IFNγ secretion, NK92 cells [15]: 15 nM
- IC50 of IL-18BP on IFNγ secretion, NK92 cells [16]: 23.5 nM
- IC50 of IL-18BPa on IFNγ secretion by NK92 cells [17]: 6.87 nM
- IC50 of IL-18BP on IFNγ secretion, NK92 cells [18]: 1.47 nM
- IC50 of IL-18BPa on IFNγ secretion by NK92 cells [18]: 0.781 nM
- IC50 of IL-18BP on IFNγ secretion, NK92 cells [19]: 7.52 nM
- IC50 of IL-18BP on IFNγ secretion, NK92 cells [20]: 47.6 nM
- IC50 of IL-18BP on IFNγ secretion, NK92 cells [21]: 1.62 nM
- IC50 of IL-18BPa on IFNγ secretion by NK92 cells [22]: 0.098 nM
- IC50 of IL-18BP on IFNγ secretion, NK92 cells [23]: > 1000 nM
- IC50 of IL-18BP on IFNγ secretion, NK92 cells [24]: 5.85 nM
- IC50 of IL-18BPa on IFNγ secretion by NK92 cells [25]: 21.4 nM
- IC50 of IL-18BP on IFNγ secretion, NK92 cells [26]: 0.456 nM
Substance: Fc fused human IL-18 binding protein isoform a (IL-18BPa; R&D systems, Cat #119-BP) (from UniProt O95998 31-194) (Fc fusion)
